Experimental data published in PMC9755798, “Transcription factor CsESE3 positively modulates both jasmonic acid and wax biosynthesis in citrus”.

B1: Probe_PLIP_Like (CsPLIP_Like promoter GCC-box) (dsDNA)
DNA 1: AAATAAACTAAGCCGCCTTGTCATATT
DNA 2: AATATGACAAGGCGGCTTAGTTTATTT
B2: Probe_PLIP (CsPLIP1 promoter GCC-box) (dsDNA)
DNA 1: GAGCCTCACTAGCCGCCATTGTCCCCG
DNA 2: CGGGGACAATGGCGGCTAGTGAGGCTC

What was measured:
CsESE3 [1] = biological target: T1, CsESE3 (Citrus sinensis? ('Newhall' navel …, UniProt A0ACB8NL77 1-192)); test: EMSA; EMSA as in Gong et al. 2021b; buffer, salt, pH and temperature not given; 5' FAM probes, 100 uM unlabeled competitor stocks, 7x/14x/28x excess; settings: protein: recombinant; tags: N-terminal His (pETDuet); label: 5' FAM (top strand); blunt
T1 sequence (A0ACB8NL77 entry or part of it): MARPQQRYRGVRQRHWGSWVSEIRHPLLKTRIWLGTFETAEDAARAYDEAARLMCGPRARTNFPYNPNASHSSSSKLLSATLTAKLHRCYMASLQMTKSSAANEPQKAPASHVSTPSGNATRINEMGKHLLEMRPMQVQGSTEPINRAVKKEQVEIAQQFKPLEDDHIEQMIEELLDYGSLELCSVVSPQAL

CsESE3 [2] = biological target: T1, CsESE3; test: EMSA; shift attenuated by excess (up to 28x) cold probe; EMSA as in Gong et al. 2021b; buffer, salt, pH and temperature not given; 5' FAM probes, 100 uM unlabeled competitor stocks, 7x/14x/28x excess; settings: protein: recombinant; tags: N-terminal His (pETDuet); label: 5' FAM (top strand); blunt

Binder	binding result (CsESE3 [1])	binding result (CsESE3 [2])
B1	binds	–
B2	–	binds
